From PMC3045386, “Insights into the Function of the CRM1 Cofactor RanBP3 from the Structure of Its Ran-Binding Domain” (PLoS ONE, 2011)

B1: Human full-length RanBP3 (residues 1–499; isoform B) (natural protein)
chain: MADLANEEKPAIAPPVFVFQKDKGQKRSAGGSSPEGGEDSDREDGNYCPPVKRERTSSLTQFPPSQSEERSSGFRLKPPTLIHGQAPSAGLPSQKPKEQQRSVLRPAVLQAPQPKALSQTVPSSGTNGVSLPADCTGAVPAASPDTAAWRSPSEAADEVCALEEKEPQKNESSNASEEEACEKKDPATQQAFVFGQNLRDRVKLINESVDEADMENAGHPSADTPTATNYFLQYISSSLENSTNSADASSNKFVFGQNMSERVLSPPKLNEVSSDANRENAAAESGSESSSQEATPEKESLAESAAAYTKATARKCLLEKVEVITGEEAESNVLQMQCKLFVFDKTSQSWVERGRGLLRLNDMASTDDGTLQSRLVMRTQGSLRLILNTKLWAQMQIDKASEKSIRITAMDTEDQGVKVFLISASSKDTGQLYAALHHRILALRSRVEQEQEAKMPAPEPGAAPSNEEDDSDDDDVLAPSGATAAGAGDEGDGQTTGST
B2: RanBP3 RBD (residues 310–454) (domain or fragment)
chain: KATARKCLLEKVEVITGEEAESNVLQMQCKLFVFDKTSQSWVERGRGLLRLNDMASTDDGTLQSRLVMRTQGSLRLILNTKLWAQMQIDKASEKSIRITAMDTEDQGVKVFLISASSKDTGQLYAALHHRILALRSRVEQEQEAK

Columns and labels:
[1] = target: T1, RanQ69L:GTP (human, UniProt P62826 1-216, Q69L); assay: ITC; 530 µM RanQ69L:GTP titrated into 48 µM full-length RanBP3; 25°C; 300 mM NaCl, 5 mM MgCl2, 10 mM TRIS pH 7.4; single-site binding model; Kd,obs; conditions: both partners purified
[2] = target: T1, RanQ69L:GTP; assay: ITC; 800 µM RanBP3 RBD (residues 310–454) titrated into 70 µM RanQ69L:GTP; 25°C; 300 mM NaCl, 5 mM MgCl2, 10 mM TRIS pH 7.4; single-site binding model; Kd,obs; conditions: both partners purified

Binder	Kd [1]	Kd [2]	stoichiometry N [2]
B1	15 ± 3 µM	–	–
B2	–	14 ± 0.3 µM	0.93 ± 0.01
